Experiments:
Assay in all cases: flow cytometry, HEK 293 cells overexpressing the target
[1] = molecular target: human nectin-4 protein expressed on the surface of cells (human) (UniProt Q96NY8)
[2] = molecular target: cynomolgus monkey nectin-4 protein expressed on the surface of HEK 293 cells (cynomolgus monkey)
[3] = molecular target: mouse nectin-4 protein expressed on the surface of HEK 293 cells (mouse) (UniProt Q8R007)
[4] = molecular target: rat nectin-4 protein expressed on the surface of HEK 293 cells (rat) (UniProt D3ZET1)

Sequence of human nectin-4 protein expressed on the surface of cells (human) (Q96NY8 32-510 limits assumed): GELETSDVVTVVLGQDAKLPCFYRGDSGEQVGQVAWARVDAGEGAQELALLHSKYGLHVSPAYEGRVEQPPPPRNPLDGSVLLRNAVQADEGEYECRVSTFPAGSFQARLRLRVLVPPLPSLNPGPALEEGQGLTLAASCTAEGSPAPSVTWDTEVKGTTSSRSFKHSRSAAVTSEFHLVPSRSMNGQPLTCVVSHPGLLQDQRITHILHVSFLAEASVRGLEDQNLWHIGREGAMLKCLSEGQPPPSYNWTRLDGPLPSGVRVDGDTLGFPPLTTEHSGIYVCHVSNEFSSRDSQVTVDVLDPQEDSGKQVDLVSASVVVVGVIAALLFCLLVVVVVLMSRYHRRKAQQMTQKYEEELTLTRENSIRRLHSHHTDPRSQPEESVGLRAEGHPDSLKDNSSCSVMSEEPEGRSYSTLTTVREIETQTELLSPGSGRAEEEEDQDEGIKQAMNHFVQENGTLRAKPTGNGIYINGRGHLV
Sequence of mouse nectin-4 protein expressed on the surface of HEK 293 cells (mouse) (Q8R007 31-508): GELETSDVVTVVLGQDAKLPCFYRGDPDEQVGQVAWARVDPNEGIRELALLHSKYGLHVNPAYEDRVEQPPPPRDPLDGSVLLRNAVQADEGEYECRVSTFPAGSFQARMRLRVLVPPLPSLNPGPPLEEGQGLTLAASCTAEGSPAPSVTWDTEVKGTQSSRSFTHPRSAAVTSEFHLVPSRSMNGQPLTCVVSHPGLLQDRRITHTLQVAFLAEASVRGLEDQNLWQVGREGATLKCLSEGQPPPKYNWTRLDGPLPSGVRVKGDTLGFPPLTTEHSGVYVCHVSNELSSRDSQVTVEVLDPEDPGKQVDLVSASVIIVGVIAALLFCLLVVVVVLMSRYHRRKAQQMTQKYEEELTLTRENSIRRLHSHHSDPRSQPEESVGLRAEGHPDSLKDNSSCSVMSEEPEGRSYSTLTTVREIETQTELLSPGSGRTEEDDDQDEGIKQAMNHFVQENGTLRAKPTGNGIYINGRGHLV

Flow data [1]: 132
Flow data [2]: 189
Flow data [3]: 163
Flow data [4]: 196
Substance: Anti-FITC Isotype Control (antibody)
